Results reported in patent US20230201364A1 (BRIGHT PEAK THERAPEUTICS, published 2023).

Key:
[1] = molecular target: T1, Fc gamma receptor IIb (FcgRIIb, CD32b) (human, UniProt P31994 46-217, limits assumed); assay: AlphaLISA competition or analogous assay for FcγRIIb (not described)
T1 construct: the kit is not described; also called FcRIIb
T1 sequence (looked up): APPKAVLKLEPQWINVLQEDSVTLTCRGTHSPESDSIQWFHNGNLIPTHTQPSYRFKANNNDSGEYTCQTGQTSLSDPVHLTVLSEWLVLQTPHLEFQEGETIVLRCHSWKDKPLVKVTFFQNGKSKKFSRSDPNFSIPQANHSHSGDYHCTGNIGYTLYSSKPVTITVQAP

CD20 = molecular target: T2, CD20 (human, UniProt P11836 1-297, limits assumed); assay: ELISA by a method analogous to the PD-1 ELISA; antigen reagent not described
T2 construct: The CD20 reagent of the ELISA is not described (analogous methods); also called human CD20
T2 sequence: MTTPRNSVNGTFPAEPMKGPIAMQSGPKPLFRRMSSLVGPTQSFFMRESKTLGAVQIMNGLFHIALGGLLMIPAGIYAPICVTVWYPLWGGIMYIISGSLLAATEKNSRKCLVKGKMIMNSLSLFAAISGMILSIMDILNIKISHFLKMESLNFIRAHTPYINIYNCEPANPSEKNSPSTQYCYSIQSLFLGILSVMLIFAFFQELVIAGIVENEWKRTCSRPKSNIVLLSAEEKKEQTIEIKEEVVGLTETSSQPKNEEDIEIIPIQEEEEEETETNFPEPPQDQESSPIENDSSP

[2] = molecular target: T3, recombinant biotinylated human Fc gamma receptor I (FcγRI/CD64) (human, UniProt P12314 16-288, limits assumed, biotinylated); assay: AlphaLISA competition; test molecule titrated against human IgG Fc acceptor beads for biotinylated FcγRI
T3 construct: also called FcgRI
Protocol: (§1) The interaction of the unmodified and of conjugated antibodies with human Fc gamma receptors I (FcγRI/CD64), with human Fc gamma receptors II (FcγRIIa/CD32), and with low affinity human Fc gamma receptors III FcγR3a/CD16 V158 were measured using the AlphaLISA® Human FcγR1/CD64 (AL3081C), FcγRIIa/CD32a 167H (AL3086C), and FcγRIII/CD16 176P/F158 (AL3471HV) binding Kits respectively (Perkin Elmer, Schwerzenbach, Switzerland).
(§2) After 90 min at 23° C. in the dark, AlphaLISA® signal was measured on an EnSpire plate reader (Excitation at 680 nm, Emission at 615 nm) from Perkin Elmer (Schwerzenbach, Switzerland).

[3] = molecular target: T4, recombinant biotinylated human Fc gamma receptor IIa (FcγRIIa/CD32a 167H) (human, UniProt P12318 36-218, limits assumed, biotinylated); assay: AlphaLISA competition; test molecule titrated against human IgG Fc acceptor beads for biotinylated FcγRIIa
T4 construct: also called FcgRIIa
T4 sequence (looked up): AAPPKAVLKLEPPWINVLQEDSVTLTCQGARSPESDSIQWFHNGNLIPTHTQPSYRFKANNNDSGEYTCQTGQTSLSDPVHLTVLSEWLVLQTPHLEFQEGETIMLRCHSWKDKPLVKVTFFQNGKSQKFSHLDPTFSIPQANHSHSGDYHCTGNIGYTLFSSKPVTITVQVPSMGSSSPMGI
Protocol: as §1, §2

[4] = molecular target: T5, recombinant biotinylated human Fc gamma receptor IIIa (FcγRIIIa/CD16) (human, UniProt P08637 17-208, limits assumed, biotinylated); assay: AlphaLISA competition; test molecule titrated against human IgG Fc acceptor beads for biotinylated FcγRIIIa
T5 construct: Allotype given inconsistently (V158 against 176P/F158); also called FcgRIIIa; FcγR3a
Protocol: as §1, §2

[5] = molecular target: T6, recombinant biotinylated human neonatal Fc receptor (FcRn) (human, UniProt P55899 24-297; P61769 21-119, limits assumed, biotinylated); assay: AlphaLISA competition at pH 6; test molecule titrated against human IgG acceptor beads for biotinylated human FcRn
T6 construct: also called human FcRn
Protocol: The interaction of the unmodified and of conjugated anti-PD1 antibodies with the human neonatal Fc receptor (FcRn) at pH 6 was measured using the AlphaLISA Human FcRn Binding Kit (AL3095C) from Perkin Elmer (Schwerzenbach, Switzerland).
After 90 min at 23° C. in the dark, AlphaLISA signal was measured on an EnSpire plate reader (Excitation at 680 nm, Emission at 615 nm) from Perkin Elmer (Schwerzenbach, Switzerland).

B1: CMP-032 (biosimilar Rituximab) (antibody, human IgG1, kappa)
heavy: not shown
light: QIVLSQSPAILSASPGEKVTMTCRASSSVSYIHWFQQKPGSSPKPWIYATSNLASGVPVRFSGSGSGTSYSLTISRVEAEDAATYYCQQWTSNPPTFGGGTKLEIKRTVAAPSVFIFPPSDEQLKSGTASVVCLLNNFYPREAKVQWKVDNALQSGNSQESVTEQDSKDSTYSLSSTLTLSKADYEKHKVYACEVTHQGLSSPVTKSFNRGEC
notes: Unconjugated parent anti-CD20 antibody (DAR 0); A biosimilar/generic rituximab was tested; also called generic rituximab
B1 showed a Kd [1] of 880 nM, a Kd (CD20) of 0.076 nM and a Kd [2] of 0.233 nM. For the same binder, the Kd [3] was 740 nM, the Kd [4] was 133 nM and the Kd [5] was 4.03 nM.
